Results as given in paper PMC9482650, “Quantitative fragmentomics allow affinity mapping of interactomes” (Nature Communications, 2022).

Key:
Assay in all cases: holdup assay
Set-up in all cases: key: below the threshold = too weak to quantify, mostly under pKd 3.1 to 4
APBA1_1, Q02410 = molecular target: T1, APBA1_1, Q02410
T1 sequence (Q02410 651-752, limits assumed, looked up): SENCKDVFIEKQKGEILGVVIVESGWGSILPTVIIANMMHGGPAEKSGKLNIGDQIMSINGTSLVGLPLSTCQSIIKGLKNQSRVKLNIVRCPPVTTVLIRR

CASK, O14936 = molecular target: CASK, O14936
CASK, O14936, sequence (O14936 487-570): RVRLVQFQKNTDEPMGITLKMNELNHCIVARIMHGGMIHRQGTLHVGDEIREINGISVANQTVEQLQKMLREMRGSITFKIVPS

DLG3_1, Q92796 = molecular target: T2, DLG3_1, Q92796
T2 sequence (Q92796 125-227, limits assumed, looked up): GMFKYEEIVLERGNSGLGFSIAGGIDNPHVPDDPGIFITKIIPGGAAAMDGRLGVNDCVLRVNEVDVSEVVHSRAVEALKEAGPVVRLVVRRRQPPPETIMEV

DLG3_2, Q92796 = molecular target: T3, DLG3_2, Q92796
T3 sequence (Q92796 221-321, limits assumed, looked up): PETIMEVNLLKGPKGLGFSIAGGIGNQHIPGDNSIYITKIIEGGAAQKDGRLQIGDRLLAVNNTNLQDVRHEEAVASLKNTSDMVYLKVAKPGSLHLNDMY

DLG3_3, Q92796 = molecular target: T4, DLG3_3, Q92796
T4 sequence (Q92796 374-475, limits assumed, looked up): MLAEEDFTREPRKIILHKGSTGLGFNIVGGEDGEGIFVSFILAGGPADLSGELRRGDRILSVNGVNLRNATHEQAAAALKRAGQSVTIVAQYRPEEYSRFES

DLG4_2, P78352 = molecular target: DLG4_2, P78352
DLG4_2, P78352, sequence (P78352 155-259): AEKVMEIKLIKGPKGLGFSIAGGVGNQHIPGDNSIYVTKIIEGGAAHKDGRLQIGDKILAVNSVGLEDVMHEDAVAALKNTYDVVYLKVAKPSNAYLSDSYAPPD

FRMPD2_3, Q68DX3 = molecular target: FRMPD2_3, Q68DX3
FRMPD2_3, Q68DX3, sequence (Q68DX3 1073-1166): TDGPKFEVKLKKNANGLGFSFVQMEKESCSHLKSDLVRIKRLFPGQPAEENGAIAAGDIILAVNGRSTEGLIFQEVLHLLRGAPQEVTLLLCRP

GIPC2, Q8TF65 = molecular target: GIPC2, Q8TF65
GIPC2, Q8TF65, sequence (Q8TF65 112-203): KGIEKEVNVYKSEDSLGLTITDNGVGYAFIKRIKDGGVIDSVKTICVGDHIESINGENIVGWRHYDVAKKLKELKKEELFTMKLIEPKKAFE

GRIP1_2, Q9Y3R0 = molecular target: T5, GRIP1_2, Q9Y3R0
T5 sequence (Q9Y3R0 145-248, limits assumed, looked up): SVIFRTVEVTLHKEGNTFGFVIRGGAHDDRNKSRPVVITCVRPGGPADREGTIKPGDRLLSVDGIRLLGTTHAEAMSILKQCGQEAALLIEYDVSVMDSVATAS

Inadl_3, Q8NI35 = molecular target: Inadl_3, Q8NI35
Inadl_3, Q8NI35, sequence (Q8NI35 359-469): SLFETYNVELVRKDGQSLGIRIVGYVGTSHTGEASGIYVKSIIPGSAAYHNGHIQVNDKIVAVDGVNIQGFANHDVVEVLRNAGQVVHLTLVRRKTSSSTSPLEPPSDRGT

Inadl_8, Q8NI35 = molecular target: Inadl_8, Q8NI35
Inadl_8, Q8NI35, sequence (Q8NI35 1425-1530): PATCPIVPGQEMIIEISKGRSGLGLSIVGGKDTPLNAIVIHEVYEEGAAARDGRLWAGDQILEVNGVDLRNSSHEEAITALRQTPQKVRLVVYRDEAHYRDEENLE

Inadl_9, Q8NI35 = molecular target: Inadl_9, Q8NI35
Inadl_9, Q8NI35, sequence (Q8NI35 1530-1615): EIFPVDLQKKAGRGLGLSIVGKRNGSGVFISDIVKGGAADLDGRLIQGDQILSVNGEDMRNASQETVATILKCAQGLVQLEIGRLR

LIN7B, Q9HAP6 = molecular target: T6, LIN7B, Q9HAP6
T6 sequence (Q9HAP6 88-185, limits assumed, looked up): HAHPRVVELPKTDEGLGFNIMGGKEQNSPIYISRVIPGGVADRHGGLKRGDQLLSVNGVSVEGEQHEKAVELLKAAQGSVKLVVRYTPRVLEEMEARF

LNX1_1, Q8TBB1 = molecular target: LNX1_1, Q8TBB1
LNX1_1, Q8TBB1, sequence (Q8TBB1 261-371): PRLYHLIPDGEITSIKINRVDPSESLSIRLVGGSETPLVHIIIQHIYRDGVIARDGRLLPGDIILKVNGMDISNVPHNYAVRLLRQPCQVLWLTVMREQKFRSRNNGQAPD

LNX1_2, Q8TBB1 = molecular target: LNX1_2, Q8TBB1
LNX1_2, Q8TBB1, sequence (Q8TBB1 371-470): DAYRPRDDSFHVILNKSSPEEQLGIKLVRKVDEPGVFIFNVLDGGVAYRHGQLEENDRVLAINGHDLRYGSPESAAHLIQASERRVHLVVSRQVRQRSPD

MAGI1_1, Q96QZ7 = molecular target: MAGI1_1, Q96QZ7
MAGI1_1, Q96QZ7, sequence (Q96QZ7 1-106): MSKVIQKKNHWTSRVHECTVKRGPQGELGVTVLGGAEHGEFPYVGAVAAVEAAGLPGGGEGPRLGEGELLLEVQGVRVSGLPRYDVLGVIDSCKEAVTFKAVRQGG

MAGI2_4, Q86UL8 = molecular target: MAGI2_4, Q86UL8
MAGI2_4, Q86UL8, sequence (Q86UL8 772-865): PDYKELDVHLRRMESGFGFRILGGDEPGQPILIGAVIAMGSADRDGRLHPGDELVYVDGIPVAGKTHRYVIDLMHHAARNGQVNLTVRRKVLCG

MAGI2_6, Q86UL8 = molecular target: MAGI2_6, Q86UL8
MAGI2_6, Q86UL8, sequence (Q86UL8 1141-1229): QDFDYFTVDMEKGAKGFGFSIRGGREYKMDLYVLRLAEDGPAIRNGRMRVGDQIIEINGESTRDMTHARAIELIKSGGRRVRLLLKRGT

MPP2, Q14168 = molecular target: T7, MPP2, Q14168
T7 sequence (Q14168 180-250, limits assumed, looked up): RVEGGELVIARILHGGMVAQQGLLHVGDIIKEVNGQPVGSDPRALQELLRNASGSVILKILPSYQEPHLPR

NHERF3_3, Q5T2W1 = molecular target: T8, NHERF3_3, Q5T2W1
T8 sequence (Q5T2W1 238-333, limits assumed, looked up): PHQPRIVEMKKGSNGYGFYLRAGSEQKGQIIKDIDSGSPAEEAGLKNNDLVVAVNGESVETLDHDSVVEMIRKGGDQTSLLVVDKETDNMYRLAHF

NHERF4_4, Q86UT5 = molecular target: NHERF4_4, Q86UT5
NHERF4_4, Q86UT5, sequence (Q86UT5 464-550): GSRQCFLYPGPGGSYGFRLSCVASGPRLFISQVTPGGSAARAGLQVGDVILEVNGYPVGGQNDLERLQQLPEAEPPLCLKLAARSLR

PTPN13_1, Q12923 = molecular target: T9, PTPN13_1, Q12923
T9 sequence (Q12923 1088-1188, limits assumed, looked up): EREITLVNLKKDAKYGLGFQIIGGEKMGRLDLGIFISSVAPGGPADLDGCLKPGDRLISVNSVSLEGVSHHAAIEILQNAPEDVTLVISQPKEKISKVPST

SNTG1, Q9NSN8 = molecular target: T10, SNTG1, Q9NSN8
T10 sequence (Q9NSN8 52-150, limits assumed, looked up): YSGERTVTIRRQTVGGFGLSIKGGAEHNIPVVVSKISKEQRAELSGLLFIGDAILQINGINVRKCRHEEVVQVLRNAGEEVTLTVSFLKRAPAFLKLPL

TJP1_3, Q07157 = molecular target: TJP1_3, Q07157
TJP1_3, Q07157, sequence (Q07157 416-512): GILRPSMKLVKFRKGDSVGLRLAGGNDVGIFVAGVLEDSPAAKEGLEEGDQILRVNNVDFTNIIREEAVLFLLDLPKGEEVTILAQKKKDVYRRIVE

TJP3_3, O95049 = molecular target: T11, TJP3_3, O95049
T11 sequence (O95049 375-456, limits assumed, looked up): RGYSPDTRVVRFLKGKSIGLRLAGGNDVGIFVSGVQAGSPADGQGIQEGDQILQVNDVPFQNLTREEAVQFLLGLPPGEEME

TX1BP3, O14907 = molecular target: T12, TX1BP3, O14907
T12 sequence (O14907 10-122, limits assumed, looked up): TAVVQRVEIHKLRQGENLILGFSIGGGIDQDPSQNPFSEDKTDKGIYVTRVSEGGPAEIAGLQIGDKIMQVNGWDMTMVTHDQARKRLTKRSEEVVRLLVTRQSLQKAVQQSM

[1] = plain residues with an end cap or a label only (N-terminal biotin on a linker: ahx)
[2] = plain residues with an end cap or a label only (N-terminal biotin on a linker: ttds)
[3] = plain residues with an end cap or a label only (N-terminal biotin on a linker: ado-ado)

Measured: pKd

TIVSWPGTFL [LNX1, Q8TBB1]
3.62: Inadl_3, Q8NI35; [1]
3.48: LIN7B, Q9HAP6; [1]
3.67: MAGI2_6, Q86UL8; [1]
4.09: LNX1_1, Q8TBB1; [1]
4.39: TX1BP3, O14907; [1]
below the threshold: APBA1_1, Q02410; [1] | CASK, O14936; [1] | DLG3_1, Q92796; [1] | DLG3_2, Q92796; [1] | DLG3_3, Q92796; [1] | DLG4_2, P78352; [1] | FRMPD2_3, Q68DX3; [1] | GIPC2, Q8TF65; [1] | GRIP1_2, Q9Y3R0; [1] | Inadl_8, Q8NI35; [1] | Inadl_9, Q8NI35; [1] | LNX1_2, Q8TBB1; [1] | MAGI1_1, Q96QZ7; [1] | MAGI2_4, Q86UL8; [1] | MPP2, Q14168; [1] | NHERF3_3, Q5T2W1; [1] | NHERF4_4, Q86UT5; [1] | PTPN13_1, Q12923; [1] | SNTG1, Q9NSN8; [1] | TJP1_3, Q07157; [1] | TJP3_3, O95049; [1]

SRRPRTETQV [HPV31-E6, P17386]
4.44: DLG3_1, Q92796; [2]
4.23: SNTG1, Q9NSN8; [2]
5.1: DLG3_3, Q92796; [2]
3.68: LIN7B, Q9HAP6; [2]
5.41: DLG3_2, Q92796; [2]
4.48: MAGI2_4, Q86UL8; [2]
4.61: TX1BP3, O14907; [2]
below the threshold: APBA1_1, Q02410; [2] | CASK, O14936; [2] | FRMPD2_3, Q68DX3; [2] | GIPC2, Q8TF65; [2] | GRIP1_2, Q9Y3R0; [2] | Inadl_3, Q8NI35; [2] | Inadl_8, Q8NI35; [2] | Inadl_9, Q8NI35; [2] | LNX1_1, Q8TBB1; [2] | LNX1_2, Q8TBB1; [2] | MAGI1_1, Q96QZ7; [2] | MAGI2_6, Q86UL8; [2] | MPP2, Q14168; [2] | NHERF3_3, Q5T2W1; [2] | NHERF4_4, Q86UT5; [2] | PTPN13_1, Q12923; [2] | TJP1_3, Q07157; [2] | TJP3_3, O95049; [2]
5.36: DLG4_2, P78352; [2]

GKKSVKHSKI [ACOT6, Q3I5F7]
3.88: DLG4_2, P78352; [3] | Inadl_8, Q8NI35; [3]
3.47: PTPN13_1, Q12923; [3]
below the threshold: APBA1_1, Q02410; [3] | CASK, O14936; [3] | DLG3_1, Q92796; [3] | DLG3_2, Q92796; [3] | DLG3_3, Q92796; [3] | FRMPD2_3, Q68DX3; [3] | GIPC2, Q8TF65; [3] | GRIP1_2, Q9Y3R0; [3] | Inadl_3, Q8NI35; [3] | Inadl_9, Q8NI35; [3] | LIN7B, Q9HAP6; [3] | LNX1_1, Q8TBB1; [3] | LNX1_2, Q8TBB1; [3] | MAGI1_1, Q96QZ7; [3] | MAGI2_4, Q86UL8; [3] | MAGI2_6, Q86UL8; [3] | MPP2, Q14168; [3] | NHERF3_3, Q5T2W1; [3] | SNTG1, Q9NSN8; [3] | TJP1_3, Q07157; [3] | TJP3_3, O95049; [3] | TX1BP3, O14907; [3]
3.76: NHERF4_4, Q86UT5; [3]

QFQYAKESYI [TAGAP, Q8N103]
3.66: LNX1_1, Q8TBB1; [2]
3.99: MAGI2_6, Q86UL8; [2]
below the threshold: APBA1_1, Q02410; [2] | CASK, O14936; [2] | DLG3_1, Q92796; [2] | FRMPD2_3, Q68DX3; [2] | GRIP1_2, Q9Y3R0; [2] | Inadl_3, Q8NI35; [2] | LIN7B, Q9HAP6; [2] | LNX1_2, Q8TBB1; [2] | MAGI1_1, Q96QZ7; [2] | MAGI2_4, Q86UL8; [2] | MPP2, Q14168; [2] | NHERF3_3, Q5T2W1; [2] | NHERF4_4, Q86UT5; [2] | PTPN13_1, Q12923; [2] | TJP1_3, Q07157; [2] | TJP3_3, O95049; [2]
3.5: Inadl_9, Q8NI35; [2]
4.41: DLG4_2, P78352; [2]
4.13: TX1BP3, O14907; [2]
4.53: SNTG1, Q9NSN8; [2]
3.57: DLG3_3, Q92796; [2]
3.78: GIPC2, Q8TF65; [2] | Inadl_8, Q8NI35; [2]
4.15: DLG3_2, Q92796; [2]

FVHPILQSAV [PRKCA, P17252]
4.71: Inadl_8, Q8NI35; [3]
3.66: MAGI2_6, Q86UL8; [3]
4.26: DLG3_2, Q92796; [3]
5.09: TX1BP3, O14907; [3]
3.49: DLG3_1, Q92796; [3]
3.57: DLG3_3, Q92796; [3]
4.53: DLG4_2, P78352; [3]
4.02: LNX1_1, Q8TBB1; [3]
below the threshold: APBA1_1, Q02410; [3] | CASK, O14936; [3] | FRMPD2_3, Q68DX3; [3] | GIPC2, Q8TF65; [3] | GRIP1_2, Q9Y3R0; [3] | Inadl_3, Q8NI35; [3] | Inadl_9, Q8NI35; [3] | LIN7B, Q9HAP6; [3] | LNX1_2, Q8TBB1; [3] | MAGI1_1, Q96QZ7; [3] | MAGI2_4, Q86UL8; [3] | MPP2, Q14168; [3] | NHERF3_3, Q5T2W1; [3] | NHERF4_4, Q86UT5; [3] | PTPN13_1, Q12923; [3] | TJP1_3, Q07157; [3] | TJP3_3, O95049; [3]
4.35: SNTG1, Q9NSN8; [3]
